Measured values taken from the supplement of paper PMC12042874.
± gives the uncertainty stated by the source.

Experiment: amyloid nucleation score (Sup35N fusion, yeast selection) (log enrichment); library NNK1; higher = more nucleation; inactive = no reads after selection
Procedure, shortened: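 The nucleation score is the log enrichment of output over input reads, calculated with DiMSum and centred on the mode score of non-aggregating sequences. Sequences with under 100 input reads were excluded. Reads came from Illumina sequencing of plasmid inserts from psi-negative yeast expressing Sup35N fused to peptides of 20 random codons, induced 24 hours with 100 μM copper sulfate and grown 7 days at 30°C without adenine and uracil.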

In order of falling amyloid nucleation score:
1. NNIFGLSIYKYCQGRYCNCS  8.226 ± 0.055
2. SFCPSMSNYTCIFPSTNLTY  7.033 ± 0.053
3. VITSVGWMLVYENQFTNLHL  6.855 ± 0.048
4. SCGNVGQRVVNIQYVGNSRF  6.34 ± 0.077
5. YHILGCKIVNVIDTALGPWL  5.8 ± 0.06
6. NKTMGMKSYFLGNIFYMYGW  5.215 ± 0.046
7. CYVLRSRSCLVFLMVYRGRV  4.95 ± 0.073
8. EILIYNNYETFLVSFFEYGG  4.21 ± 0.083
9. TLLNGFFATSYCGCFFGSRT  3.95 ± 0.13
10. SWRLK  3.35 ± 0.073
11. EAPGTKFCC  2.94 ± 0.1
12. IIRGRNVNSVRSNYYMGRFY  2.72 ± 0.095
13. SDEMVW  2.65 ± 0.11
14. INFRHA  2.57 ± 0.33
15. RWPRCYYNLGKCTDISLTWS  2.56 ± 0.18
16. PGKSLIIHMCFSMSKTTENG  2.52 ± 0.08
17. CSLTCVSWHMGSF  2.15 ± 0.32
18. IFSHIPCLITFSNDQ  2.13 ± 0.43
19. IFITCIARTLYHAGNLQRNL  2 ± 0.11
20. YIKAGLFGCYMVAGGAYNPV  1.58 ± 0.31
21. MVVVIIYL  1.53 ± 0.35
22. VKGVD  1.19 ± 0.64
23. SMRWVDL  1.19 ± 0.97
24. PISCFTDHMQMFMRSNGRGL  1.16 ± 0.29
25. HNHRRQDGIRNA  1.12 ± 0.14
26. FCSYLFMLATTLHQAWFHF  1.1 ± 0.72
27. FNDGYSVAEA  0.998 ± 0.48
28. TRWQITDPYSPCTWSCSWTQ  0.906 ± 1
29. HEFYSVLMGHFVWLQPWETR  0.839 ± 1.1
30. KGQFF  0.835 ± 0.75
31. RIFLLVTHVACAMPLFHKTR  0.83 ± 0.75
32. VRFLISHRESVLKSMAGCVV  0.815 ± 0.93
33. SGVINTAAMIRTDPWRVLDG  0.765 ± 0.42
34. VTACGYRMRRCRCFCECNGT  0.72 ± 0.57
35. ELGGVWN  0.701 ± 0.58
36. TRCKTGSLRLNYVDISQPHV  0.683 ± 0.8
37. RYVETNSGAE  0.669 ± 0.43
38. VFAVLRLPPKMTARSMGASP  0.661 ± 0.61
39. FIQNGV  0.659 ± 0.79
40. DRRCLRYSLNCLLFRSIYYN  0.652 ± 1
41. FVCWRYRCFLWELEEDGLVN  0.627 ± 0.71
42. ILQSFSTVEHFEDLL  0.58 ± 1.2
43. TKWLLP  0.504 ± 0.57
44. QVGPVREHEHKVLAGLSMDW  0.498 ± 0.38
45. RGSEPAIGLMMVLP  0.458 ± 0.41
46. IDTNCRNCGYREFASKCELR  0.456 ± 0.26
47. TWIVEELFIGDRLALREGFR  0.406 ± 0.63
48. GTRQSDHYCVSTGLCV  0.352 ± 0.36
49. SEYMLRSNIVFPRWIS  0.35 ± 0.71
50. IPSGTVF  0.34 ± 0.9
51. CWPRG  0.326 ± 0.55
52. GFSSMRYEGFGTGKCVDFLS  0.281 ± 0.22
53. DNFMSAGRLWSDSSADLIIT  0.277 ± 0.79
54. VTCRCYSFSLMAGAMTRRSG  0.188 ± 0.75
55. CGAVHGGGWSAIYLNGYLGW  0.186 ± 0.95
56. APMNVLEVTFSYSADLTVVV  0.167 ± 0.79
57. FEAFFNGHSSREYLVISVRL  0.153 ± 1.2
58. RYSCY  0.152 ± 0.6
59. VQSSFSFYDVVNSPGHRWTW  0.14 ± 0.45
60. LDGVFNTTIATVNSFREYLM  0.132 ± 0.48
61. AAIAWVLN  0.112 ± 0.58
62. TGLWNRIEVPVDKTEAKQPV  0.076 ± 0.42
63. VNRFCSVQVDS  0.074 ± 0.47
64. RYYMGTIWILGEFGSLFWMM  0.06 ± 0.39
65. FKSYPVGIRRHCHGTSMLMG  0.059 ± 0.31
66. KSRWHMLLNS  0.051 ± 0.72
67. YDHCEGCWMSNRMWELGWKG  0.048 ± 0.33
68. INLYVNISRFIPCV  0.027 ± 0.53
69. VEYVQYFWSSGGVYGSDTGW  0.024 ± 0.76
70. LPFMTHVHVLSRQKTKVKGR  -0.041 ± 0.28
71. MSQDR  -0.061 ± 0.94
72. KVFLRMQRSSGTVKCKSQTE  -0.065 ± 0.41
73. GSKSFPSSGSSMQAAGTSSG  -0.069 ± 0.36
74. RRLLTCGGSPYRQLR  -0.078 ± 0.98
75. FNLATIPISQFITPNSPLLR  -0.091 ± 1.1
76. VSIRFSCRRIYNFLVEFPLG  -0.102 ± 0.19
77. PWYKSLSRPSGGKTVLLRNM  -0.113 ± 0.43
78. IRYYVVSSVVDSNS  -0.142 ± 0.31
79. FDSRRGEGALMSNDSSCERG  -0.185 ± 0.69
80. SNRGRNLGSYCVGNYFGCFT  -0.224 ± 1.7
81. LSSSGFWYWFT  -0.251 ± 0.32
82. FVAVNILDMMKAYKLFENLF  -0.256 ± 0.22
83. NSRGT  -0.28 ± 0.34
84. KSDNVVTRLRLLSAEVQW  -0.295 ± 0.98
85. VMGIDSFTYAG  -0.315 ± 0.54
86. IPARTESDTRYMSMCGSNNQ  -0.317 ± 0.55
87. AMFNIW  -0.328 ± 0.47
88. MDKCIVSGVVESIFTGGAVI  -0.361 ± 0.75
89. FLLAPTLL  -0.367 ± 1
90. MTVSRNFDYAKLCEWRRVNR  -0.371 ± 0.37
91. LGRSWWYYSQLWDSRHLSF  -0.38 ± 1.5
92. GPTYVSSFLELWRNTSHDFC  -0.402 ± 0.88
93. GLNCSGNGEVIWQP  -0.403 ± 1.4
94. ILRNGRTYGAEVLQQLWNVL  -0.418 ± 0.73
95. MRVTFHYFS  -0.434 ± 1.7
96. LNFIHNGM  -0.444 ± 1.9
97. VGSSVPGCRAGVFGLLDRCI  -0.489 ± 1.7
98. FLSRCGWAYVMV  -0.493 ± 0.26
99. LFRDACLGMR  -0.494 ± 0.48
100. RKNTDVTENEYRWAIF  -0.522 ± 1.9
101. RSVRLMNRVSGWNMWWKDGT  -0.535 ± 1.2
102. GFIQWLMLWRVFFSM  -0.681 ± 0.39
103. HKRLVGSYWFIFYSVTRYQE  -0.685 ± 1.7
104. CLVYSTYIDGQTLAKTF  -0.761 ± 1.2
105. TVIFMCLTAFGTSGNHIGSR  -0.776 ± 0.81
106. MGGTLRNRRGTKVRSELGGD  -0.817 ± 1.7
107. QIRRGCRYFW  -0.856 ± 1.1
108. SFFFSRVGSLFCLRFYDVFG  -0.858 ± 1.3
109. NESGSARFSPVDSYGFGSGC  -0.894 ± 0.75
110. MKCYVFLKNWMWLVDYLDSI  -0.991 ± 2.4
111. FKVTFNRDVPNESSTALCSV  -1.01 ± 1.7
112. PRTTMMAINQVLTGTLEASW  -1.01 ± 0.95
113. PRHFVKVIEAPASLLIVYHG  -1.02 ± 1.8
114. HLRIGLNDVSLIISLTDKRT  -1.07 ± 0.47
115. LYVLYAIRFLSFCSFWRYLI  -1.15 ± 0.51
116. CYKLGYGFVHFSAIMVNIIS  -1.22 ± 1.7
117. VWMVMSYPDHTLVLLLTG  -1.33 ± 0.57
118. DPICFYYYFLVN  -2.01 ± 1.5

With GSHSGVFRVIKYQILFEVGM the amyloid nucleation score was “inactive”.
For VRYYMALMRWDDNVNSMCMG, the amyloid nucleation score was “inactive”.
In the case of CYMKNKLSFIM, the amyloid nucleation score is reported as “inactive”.
In the case of RLMNRFMPKSLLLLLPVFVR, the amyloid nucleation score is reported as “inactive”.
In the case of SRGRSNAALSLRKFVGGFCL, the amyloid nucleation score is reported as “inactive”.
With IKALMIC the amyloid nucleation score was “inactive”.
In the case of VLKPSLGGCLSHSVMLKLSD, the amyloid nucleation score is reported as “inactive”.
With NFIQID the amyloid nucleation score was “inactive”.
With NISCDRGMLG the amyloid nucleation score was “inactive”.
In the case of CSYGARGIWATESIVANKSV, the amyloid nucleation score is reported as “inactive”.
With IICSSM the amyloid nucleation score was “inactive”.
